How the values were obtained:
[1] = target: Flag-gp130-RTp51 fusion protein (encoded by pMG2-RTp51) (human; HIV1) (UniProt P40189); assay: cell-based or functional assay
[2] = target: T1, HA-Tyk2(C)-p53(N) fusion protein (encoded by pMet7-HA-Tyk2(C)-p53(N)) (human, UniProt P04637 2-72); assay: kinase-substrate sensor assay, rPAPI-luciferase reporter in HEK293-T cells
T1 construct: range 2-72; Expressed in HEK293-T cells; not shown: HA tag

| Molecule | imidazole-dependent induction of the luciferase signal [1] | binding result [2] |
| --- | --- | --- |
| HA-Tyk2(R1027A)-RTp66 fusion protein (encoded by pMet7-HA-Tyk2(R1027A)-RTp66) | 36 fold |  |
| unfused gp130 receptor fragment (encoded by pMG1) (other, human, UniProt P40189 760-918, looked up, Background control, expressed in HEK293-T cells; also called unfused gp130 fragment) STVVHSGYRHQVPSVQVFSRSESTQPLLDSEERPEDLQLVDHVDGGDGILPRQQYFKQNCSQHESSPDISHFERSKQVSSVNEEDFVRLKQQISDHISQSCGSGQMKMFQEVSAADAFGPGTEGQVERFETVGMEAATDEGMPKSYLPQTVRQGGYMPQ |  | no binding |

Source: patent US20190177705A1 (UNIVERSITEIT GENT, published 2019)
